Laboratory results taken from patent US8034783B2, “Prodomain modulators of ADAM 10” (Biozyme, Inc., priority 2006, dated 2011).

Columns and labels:
[1] = molecular target: T1, ADAM 10 (human) Cat/Dis (Homo sapiens, UniProt O14672); assay: Inhibition assay with ADAM10 catalytic/disintegrin construct, fluorescent substrate; assay type: biochemical; settings: room temperature, 10 μM fluorescent substrate; read-out: inhibition constant (Ki), ADAM 10 (human) Cat/Dis
T1 construct: containing the catalytic/disintegrin domains; purchased R & D Systems (Minneapolis, Minn., USA)
T1 sequence (O14672 214-672 limits assumed): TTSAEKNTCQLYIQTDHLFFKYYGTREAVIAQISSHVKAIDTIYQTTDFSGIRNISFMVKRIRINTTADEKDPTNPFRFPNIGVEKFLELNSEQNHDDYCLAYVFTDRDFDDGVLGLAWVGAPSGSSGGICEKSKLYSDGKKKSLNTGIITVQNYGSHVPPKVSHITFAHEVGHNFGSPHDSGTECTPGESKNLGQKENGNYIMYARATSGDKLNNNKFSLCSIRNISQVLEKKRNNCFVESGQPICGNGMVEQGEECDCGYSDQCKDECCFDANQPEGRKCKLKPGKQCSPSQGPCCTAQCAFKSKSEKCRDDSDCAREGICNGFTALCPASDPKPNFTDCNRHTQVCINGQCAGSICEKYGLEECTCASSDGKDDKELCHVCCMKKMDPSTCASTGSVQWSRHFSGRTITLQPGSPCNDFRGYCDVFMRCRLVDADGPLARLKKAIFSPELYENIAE
Experimental: (§1) Inhibition assays with TACE and ADAM 10. Activity of TACE catalytic/disintegrin, TACE catalytic, or ADAM10 catalytic/disintegrin constructs was monitored at 3 minute intervals using the fluorescent substrate, Dabcyl-LAQAHomoPheRSC(Fluorescein)-NH2 (SEQ ID NO 17) with excitation 485 nm and emission 530 nm. The substrate was diluted from a 10 mM stock in DMSO to 10 μM in assay buffer containing 20 mM Tris, pH 8.0, and 0.0006% Brij-35. Reactions were run in a 96-well black-coated plate with either ADAM10 prodomain (10 nM-1.0 μM) alone or with enzyme. Concentrations of enzyme ranged from 0.5-2.0 nM for TACE and 5-15 nM for ADAM10. For assays with TACE and ADAM8 prodomain, the range of concentrations varied from 1-4.7 μM.
(§2) Calculation of inhibition constants. The amount of activity was calculated by subtracting the ADAM 10 prodomain control from the ADAM 10 prodomain with enzyme. All inhibition assays were performed at room temperature and the data fit to the following equation using Sigma Plot software:
(§3) [formula] where If is fractional inhibition, I is the inhibitor concentration and Ki is the inhibition constant.
Wild type ADAM 10 prodomain (23-213) was tested to determine the mode of inhibition of ADAM 10 protein. ADAM 10 protein was diluted 1:100 in buffer 25 mM Tris pH 8, 0.0006% Brij-35 and then 10 μl was added to 88 μl of substrate (20-100 μM), Dabcyl-LAQAHomoPheRSC(Fluorescein)-NH2 with excitation 485 nm and emission 530 nm. Prodomain, 2 μl, in 25 mM Tris, pH 8, 100 mM NaCl, 10% glycerol, 0.1% mercaptoethanol, and 50 μM CaCl2 was added to substrate before addition of enzyme. The final concentration of prodomain ranged from 17-170 nM. The fluorescence vs time was plotted, and slopes were taken from straight line fits of initial velocities. The reciprocal of the velocities was plotted vs the reciprocal of substrate squared since the normal Lineweaver Burke plot gave curved lines. The initial velocities vs substrate concentrations were fit as a family of curves to several allosteric models.

[2] = molecular target: T2, TACE (human) Cat/Dis (Homo sapiens, UniProt P78536); assay: Inhibition assay with TACE catalytic/disintegrin construct, fluorescent substrate; assay type: biochemical; settings: room temperature; read-out: inhibition constant, TACE (human) Cat/Dis
T2 construct: containing the catalytic/disintegrin domains; purchased R & D Systems (Minneapolis, Minn., USA)
T2 sequence (P78536 215-671 limits assumed): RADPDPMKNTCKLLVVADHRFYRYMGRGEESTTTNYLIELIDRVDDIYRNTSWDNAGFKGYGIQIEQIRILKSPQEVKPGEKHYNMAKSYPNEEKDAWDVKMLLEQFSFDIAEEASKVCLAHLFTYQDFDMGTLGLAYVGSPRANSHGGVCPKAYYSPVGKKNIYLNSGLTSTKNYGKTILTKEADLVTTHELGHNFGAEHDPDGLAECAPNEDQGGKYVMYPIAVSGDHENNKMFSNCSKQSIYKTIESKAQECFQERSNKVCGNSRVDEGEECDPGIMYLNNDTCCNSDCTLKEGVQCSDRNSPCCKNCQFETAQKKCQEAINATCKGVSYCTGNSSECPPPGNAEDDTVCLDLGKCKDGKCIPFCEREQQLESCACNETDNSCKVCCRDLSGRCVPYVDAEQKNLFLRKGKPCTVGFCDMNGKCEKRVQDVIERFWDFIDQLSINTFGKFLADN
Experimental: as §1, §2, §3

[3] = molecular target: T3, TACE (human) Cat (Homo sapiens, UniProt P78536); assay: Inhibition assay with TACE catalytic domain, fluorescent substrate; assay type: biochemical; settings: room temperature; read-out: inhibition constant, TACE (human) Cat
T3 construct: TACE catalytic domain, Marcos Milla, University of Pennsylvania; donated by Marcos Milla, University of Pennsylvania
T3 sequence (P78536 223-474 limits assumed): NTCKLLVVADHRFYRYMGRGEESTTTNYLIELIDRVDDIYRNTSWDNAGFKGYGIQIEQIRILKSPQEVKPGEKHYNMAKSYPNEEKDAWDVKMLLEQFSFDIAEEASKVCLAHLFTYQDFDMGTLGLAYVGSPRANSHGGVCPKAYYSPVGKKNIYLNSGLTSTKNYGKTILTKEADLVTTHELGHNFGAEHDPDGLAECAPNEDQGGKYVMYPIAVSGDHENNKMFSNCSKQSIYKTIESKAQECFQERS
Experimental: as §1, §2, §3

[4] = system: MMP 1, 2, 3, 9, 13, 14; assay: Inhibition assays with MMPs; assay type: biochemical
Experimental: Inhibition assays with MMPs. The fluorescent substrate Dabcyl-GPLGMRGC (Fluorescein)-NH2 (SEQ ID NO 18) (10 μM) in assay buffer containing 50 mM Tris, pH 7.5, 150 mM NaCl, 2 mM CaCl2, 5 μM ZnSO4, and 0.01% Brij-35 was used to monitor enzyme activities. MMPs 1, 2, 3, 9, 13, and 14 (0.1-20 nM) were incubated with substrate in the absence or presence of prodomain (3-30 μM). Fluorescence intensities were measured every 3-5 minutes at an emission wavelength of 530 nm (excitation 485 nm).
as §2, §3

[5] = system: CD23 shedding in Ramos cells; assay: CD23 release from Ramos cells, soluble CD23 ELISA; assay type: cell-based; settings: 150-600 nM, IL-4, 24 hr, FIG. 2A
Experimental: (§4) ADAM 10 prodomains were also tested in assays to determine if ADAM 10 protein functions as a CD23 sheddase. Cells (100,000 per well) were seeded in round-bottomed 96-well plates (Sarstedt, Newton, N.C.) in 0.2 ml of media supplemented with IL-4 with inhibitors (A10 23-215 150-600 nM, GM6001 10-50 μM, TAPI-2 10-50 μM, or TIMPs 250 nM) or vehicle controls (A10 23-215 buffer: 25 mM NaH2PO4 pH 7.0, 125 mM KCl, 75 mM NaCl 20% glycerol, PBS, or dimethyl sulfoxide). Cells were cultured for 24 hr. The conditioned medium was harvested by centrifugation (2000×g, 15 min). The conditioned medium was assayed by ELISA for soluble CD23 according to the manufacturers' instructions (BD Biosciences, Invitrogen).

[6] = system: CD23 shedding in U937 cells; assay: CD23 release from U937 cells, soluble CD23 ELISA; assay type: cell-based; settings: 150-600 nM, IL-4, 24 hr, FIG. 2B
Experimental: as §4

B1: C173S ProADAM 10 23-213 (C-terminal His tag): mouse ADAM 10 prodomain 23-213 with cysteine 173 mutated to serine, C-terminal His tag (protein, UniProt O35598 23-213, looked up, variant C173S)
chain: NPLNKYIRHYEGLSYNVDSLHQKHQRAKRAVSHEDQFLLLDFHAHGRQFNLRMKRDTSLFSDEFKVETSNKVLDYDTSHIYTGHIYGEEGSFSHGSVIDGRFEGFIKTRGGTFYIEPAERYIKDRILPFHSVIYHEDDINYPHKYGPQGGSADHSVFERMRKYQMTGVEEGARAHPEKHAASSGPELLRKK
modifications: pro-form C-terminal His tag
notes: mouse ADAM 10 prodomain 23-213 with cysteine 173 mutated to serine, C-terminal His tag
Ki [1]: 36 ± 9 nM | Ki [2]: > 3000 nM | Ki [3]: > 3000 nM | inhibition of matrix metalloproteinases 1, 2, 3, 9, 13 and 14 ([4]; 3 μM prodomain): not inhibited | Ki ([4]; read-out: inhibition constant, MMP 1, 2, 3, 9, 13, 14): > 2000 nM | inhibition of CD23 shedding, Ramos cells [5]: about 30% | inhibition of CD23 shedding, U937 cells [6]: about 30%
